Assay results published in PMC10767048 (Nature Communications, 2024).

Molecular target: T1, bovine serum albumin (Bos taurus, UniProt P02769)
T1 construct: also called BSA
Assay: ELISA
Conditions: both partners purified

T1 sequence (P02769 25-607): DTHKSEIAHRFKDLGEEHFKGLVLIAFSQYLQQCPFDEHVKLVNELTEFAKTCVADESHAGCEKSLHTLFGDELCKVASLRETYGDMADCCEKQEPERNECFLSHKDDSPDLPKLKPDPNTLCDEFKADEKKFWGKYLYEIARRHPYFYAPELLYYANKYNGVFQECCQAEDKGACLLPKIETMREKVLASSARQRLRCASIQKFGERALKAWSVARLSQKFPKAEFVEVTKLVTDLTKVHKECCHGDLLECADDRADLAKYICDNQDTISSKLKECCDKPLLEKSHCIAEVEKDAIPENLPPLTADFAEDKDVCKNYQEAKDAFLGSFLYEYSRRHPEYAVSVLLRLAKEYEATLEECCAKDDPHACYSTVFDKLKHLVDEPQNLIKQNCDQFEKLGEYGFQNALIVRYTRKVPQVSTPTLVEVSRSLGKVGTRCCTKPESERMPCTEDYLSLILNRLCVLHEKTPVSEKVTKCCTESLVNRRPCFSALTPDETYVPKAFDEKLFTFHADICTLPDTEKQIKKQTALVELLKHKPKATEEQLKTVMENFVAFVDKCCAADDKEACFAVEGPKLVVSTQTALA

B1: nanobody D5 (camel VHH) (VHH)
VHH: AWQLVESGGGSVQPGGSLTLTCQASKSTFSTSGMRWERQAQGKGVEFVADISSDSTRKWYSDSVKGRFTISRSNWWRTVTLQMNDLKPEDTARYYCKDLESHHLRGQGTQVTVSS
notes: source: E. coli HB2151 (pComb3x phagemid), released with polymyxin B, purified (HisTrap)
B1: no binding (tested: 1 μg/ml).
